Test results from paper doi:10.1101/2023.04.25.538313v1.

Substrate: O=c1ccn([C@@H]2O[C@H](CO[P@@](=O)(O)O[P@@](=O)(O)O[C@H]3O[C@H](CO)[C@@H](O)[C@H](O)[C@H]3O)[C@@H](O)[C@H]2O)c(=O)[nH]1
Assay: purified protein
Conditions: His-tagged protein in proteoliposomes

B1: CSLD3 (Arabidopsis thaliana) (protein)
chain: MASNNHFMNSRSNLSTNSDAAEAERHQQPVSNSVTFARRTPSGRYVNYSRDDLDSELGSVDLTGYSVHIPPTPDNQPMDPSISQKVEEQYVSNSLFTGGFNSVTRAHLMEKVIDTETSHPQMAGAKGSSCAVPGCDVKVMSDERGQDLLPCECDFKICRDCFMDAVKTGGMCPGCKEPYRNTDLADFADNNKQQRPMLPPPAGGSKMDRRLSLMKSTKSGLMRSQTGDFDHNRWLFETSGTYGFGNAFWTKDGNFGSDKDGNGHGMGPQDLMSRPWRPLTRKLQIPAAVISPYRLLILIRIVVLALFLMWRIKHKNPDAIWLWGMSVVCELWFALSWLLDQLPKLCPINRATDLNVLKEKFETPTPSNPTGKSDLPGLDMFVSTADPEKEPPLVTSNTILSILAADYPVEKLACYVSDDGGALLTFEAMAEAASFANMWVPFCRKHNIEPRNPDSYFSLKRDPYKNKVKADFVKDRRRVKREYDEFKVRINSLPDSIRRRSDAYHAREEIKAMKLQRQNRDEEIVEPVKIPKATWMADGTHWPGTWINSGPDHSRSDHAGIIQVMLKPPSDEPLHGVSEGFLDLTDVDIRLPLLVYVSREKRPGYDHNKKAGAMNALVRASAIMSNGPFILNLDCDHYIYNSQALREGMCFMMDRGGDRLCYVQFPQRFEGIDPSDRYANHNTVFFDVNMRALDGLMGPVYVGTGCLFRRIALYGFDPPRAKEHHPGFCSCCFSRKKKKSRVPEENRSLRMGGDSDDDEEMNLSLVPKKFGNSTFLIDSIPVAEFQGRPLADHPAVQNGRPPGALTIPRELLDASTVAEAIAVISCWYEDKTEWGSRIGWIYGSVTEDVVTGYRMHNRGWKSVYCVTKRDAFRGTAPINLTDRLHQVLRWATGSVEIFFSRNNAFFASPRMKILQRIAYLNVGIYPFTSFFLIVYCFLPALSLFSGQFIVQTLNVTFLVYLLIISITLCLLALLEIKWSGISLEEWWRNEQFWLIGGTSAHLAAVIQGLLKVVAGIEISFTLTSKSGGEDVDDEFADLYIVKWTSLMIPPITIMMVNLIAIAVGFSRTIYSVIPQWSKLIGGVFFSFWVLAHLYPFAKGLMGRRGRTPTIVYVWSGLVAITISLLWVAINPPAGSTQIGGSFTFP
- Km: 62 µM
